This data set has as its system MS2 coat protein. The data set can be described thus: apparent KD of MS2 coat protein; designed switch direction (-1 OFF switch, 1 ON switch): -1; higher = weaker reporter binding. In outline:
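Each step of the titration lasted 0.8–1.5 h at the lowest concentration and 10–20 min at the highest. The protein, SNAP-549-labelled MS2 coat protein, went from 0.7 or 1.5 nM doubling to 3 µM over RNA switches transcribed on Illumina chips by stalled E. coli RNA polymerase. Normalised cluster fluorescence was curve-fitted, and the per-design median over clusters is given as apparent KD.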

The mark [1] stands for this setting: input ligand: microRNA oligo, concentration not stated.
[2] abbreviates: Eterna round: R95, input ligand: microRNA oligo, concentration not stated.
Setting [3] is: Eterna round: R95, input ligand: FMN 200 uM.
Setting [4] is: Eterna round: R95, input ligand: none.

For the sequence “ACAUGAGGAUCACCCAUGUCAGGCUGGUCCGCUCCGGCUGUUGAGGAUAUAGCCCGGUAUCCGCGCUAGAAGGUGAGGGCCGGC [Aenatbe mod 28] (Eterna round: R96, puzzle: Exclusion NG 3)”, the “apparent KD of MS2 coat protein” value was 0.0248 µM (input ligand: FMN 200 uM), 0.0263 µM under setting [1] and 0.0284 µM (input ligand: none).

As for “GGAUCUUGGGUCAGGAUAUGCUGAUAGUUAUGUCAGCAGAAGGGACAUGAGGAUCACCCAUGUGCUCGGUUUUG [Magic-18] (puzzle: Brourd's mod of Exclusion 4)”, the “apparent KD of MS2 coat protein” value under setting [2] was found to be 0.0113 µM.

“CCAGCGUAUGUGAGGAUAUGCUGGUCCUUGGAUCAGCAGAAGGCACAUGAGGAUCACCCAUGUGAUGACGUUGG [JL bmx4 3.40] (puzzle: Brourd's mod of Exclusion 4)”: under setting [2], the “apparent KD of MS2 coat protein” value is 0.0426 µM.

In the case of “ACUAGAUGAGGAUAUGCACAUUUUAGUGUUCCUCUAGAUUAACAUGAGGAUCACCCAUGUAGAAGGCGUCAAUU [Exclusion 2 - 12] (puzzle: Exclusion 2)”, the “apparent KD of MS2 coat protein” value under setting [2] amounted to 0.0531 µM.

For the sequence “GUCACUAGAGGAUAUACAAUGGUAUAUGAUCCUAGAGACAUACAUGAGGAUCACCCAUGUAGAAGGCUAGUAUU [Exclusion 2 - 5] (puzzle: Exclusion 2)”, the “apparent KD of MS2 coat protein” value under setting [2] is 0.0583 µM.

Take “ACAUAAAAGGCAGGAUAUUCAAACCCAUAGCUAGAAGAAGGGCCGAAGAACUUCUAACAUGAGGAUCACCCAUGUGAGCAUGGG [Ininesxeed] (Eterna round: R96, puzzle: Exclusion NG 1)”: the “apparent KD of MS2 coat protein” value came to 0.0824 µM (input ligand: FMN 200 uM), 0.0439 µM under setting [1] and 0.0646 µM (input ligand: none).

As to “ACAUGAGGAUCACCCAUGUCUGGCUGGUCCGCUCCGGCUGUUGAGGAUAUAGUUCGGUGUCCGCGCUAGAAGGUGAGGGCUGGC [Aenatbe mod 35] (Eterna round: R96, puzzle: Exclusion NG 3)”, the “apparent KD of MS2 coat protein” value is, setting by setting: (input ligand: FMN 200 uM) 0.0218 µM; under setting [1], 0.0212 µM; (input ligand: none) 0.0313 µM.

Take “GUAGCUGAUAAGGAUAUUGUACCUAACCUGCGUCGAGAAGGUGUCACAUGAGGAUCACCCAUGUUUAGGCAAAG [Eternabot (L2) Solution 22] (Eterna round: R97, puzzle: Exclusion 6)”: the “apparent KD of MS2 coat protein” value reads like this: (input ligand: FMN 200 uM) 0.0244 µM; (input ligand: none) 0.0295 µM.

Regarding “AGAUGUAGAUACCGAUCCUACAUGAGGAUCACCCAUGUAGCUAGACGUGCGCGCGGCGCUCGUCAGACUACCAGUAG [salish99_TOv1_r3_093] (puzzle: Sensor v3, turn-off variant 1)”, the “apparent KD of MS2 coat protein” value was 0.328 µM under setting [3], 0.248 µM under setting [2] and 0.326 µM under setting [4].

On to “UCGGCGUCAGGAUAUCCAAUAUAUGACAUGAGGAUCACCCAUGUUUCCACUCGUACCUCCGGAGAAGGGACGAAUU [Ex5 #92] (Eterna round: R97, puzzle: Exclusion 5)”, for which the “apparent KD of MS2 coat protein” value reads like this: (input ligand: FMN 200 uM) 0.0335 µM; (input ligand: none) 0.0321 µM.

For the sequence “ACAUGUUAUGUAGGAUAUUUUACACAUGAGGAUCACCCAUGUAACCGGAGGCUUUACUAUGAGUAAGAGAAGGGUAUGAACAUG [Ex NG2 #64] (Eterna round: R96, puzzle: Exclusion NG 2)”, the “apparent KD of MS2 coat protein” value runs as follows: (input ligand: FMN 200 uM) 0.0925 µM; under setting [1], 0.0422 µM; (input ligand: none) 0.0837 µM.

“GAAAAGGCAGGAUAUGCAAUGUUUGUCCCAUCUCUCCUAAGACAUGAGGAUCACCCAUGUAGAAGGGCCAGGAA [Eternabot (L2) Solution 62] (Eterna round: R97, puzzle: Exclusion 2)”: the “apparent KD of MS2 coat protein” value by setting is: (input ligand: FMN 200 uM) 0.0337 µM; (input ligand: none) 0.0265 µM.

“UUUUUCAGGCCAGAUCCUCACAUGAGGAUCACCCAUGUGCUCGUCUGUUUUCGCACUAUCACGUUUGUGAUAGUGCU [Level Boss var2-12] (puzzle: Sensor v3, turn-off variant 1)”: the “apparent KD of MS2 coat protein” value runs as follows: under setting [3], 0.207 µM; under setting [2], 0.0335 µM; under setting [4], 0.216 µM.
